Test results taken from patent US20200079850A1.

What was measured:
[1] = target: cynomolgus LAG3 expressed on the cell surface (293T or CHO cells) (cynomolgus monkey); experiment: flow cytometry, 293T cells expressing cyno LAG3
[2] = target: cynomolgus LAG3-Fc (accession # NC 022282.1) (cynomolgus monkey); experiment: SPR (Biacore), antibody captured by anti-Flag, cyno LAG3-Fc as analyte, 25 C
Sequence of cynomolgus LAG3-Fc (accession # NC 022282.1) (cynomolgus monkey) (P18627 other isoform, or with tags, fused parts or gaps limits assumed, form in doubt): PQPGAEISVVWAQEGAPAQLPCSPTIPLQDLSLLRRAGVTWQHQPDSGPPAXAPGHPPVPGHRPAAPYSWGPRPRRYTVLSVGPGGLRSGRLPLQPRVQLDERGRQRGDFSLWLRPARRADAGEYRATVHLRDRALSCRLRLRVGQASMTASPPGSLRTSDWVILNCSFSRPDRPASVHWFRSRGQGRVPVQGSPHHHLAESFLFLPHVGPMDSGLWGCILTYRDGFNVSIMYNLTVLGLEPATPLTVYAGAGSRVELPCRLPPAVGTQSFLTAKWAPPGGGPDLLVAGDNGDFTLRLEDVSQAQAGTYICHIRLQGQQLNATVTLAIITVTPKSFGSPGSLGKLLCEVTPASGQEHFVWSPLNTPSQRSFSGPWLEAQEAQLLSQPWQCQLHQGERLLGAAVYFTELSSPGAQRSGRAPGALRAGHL

Sequence of cynomolgus LAG3 expressed on the cell surface (293T or CHO cells) (cynomolgus monkey) (P18627 other isoform, or with tags, fused parts or gaps limits assumed, form in doubt): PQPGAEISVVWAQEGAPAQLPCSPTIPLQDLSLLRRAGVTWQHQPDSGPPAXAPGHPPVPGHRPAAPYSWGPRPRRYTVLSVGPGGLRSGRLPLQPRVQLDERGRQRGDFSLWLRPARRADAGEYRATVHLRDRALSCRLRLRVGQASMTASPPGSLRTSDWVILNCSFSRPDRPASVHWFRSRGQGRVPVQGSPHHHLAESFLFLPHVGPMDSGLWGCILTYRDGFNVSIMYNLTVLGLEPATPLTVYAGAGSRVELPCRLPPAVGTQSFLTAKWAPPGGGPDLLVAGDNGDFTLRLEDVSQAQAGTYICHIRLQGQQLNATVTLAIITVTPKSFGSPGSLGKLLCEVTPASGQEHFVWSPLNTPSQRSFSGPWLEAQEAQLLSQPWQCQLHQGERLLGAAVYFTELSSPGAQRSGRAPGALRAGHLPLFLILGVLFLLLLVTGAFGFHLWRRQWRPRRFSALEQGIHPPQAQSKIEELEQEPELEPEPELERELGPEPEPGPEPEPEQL

B1: 421.61.4.5G11 (antibody, V domains shown)
VH: EVQLQQSGAELVRSGASVKLSCTASGFNIKDYYMHWVKQRPEQGLEWIAWIDPENGDTEYAPKFQGRATLTADTSSNTAYLHLSSLTSEDTAVYYCNAPDALDYWGQGTSVTVSS
VL: not shown
Kd [1]: 4.5 nM
Kd [2]: 4.51 nM
koff [2]: 0.000641 s⁻¹
